Literature values as cited in PMC7417478.

Columns and labels:
[1] = target: FGFR2 (Homo sapiens) (UniProt P21802)
[2] = target: FGFR1 (Homo sapiens) (UniProt P11362)
Chain of UniProt P11362 (P11362 22-376): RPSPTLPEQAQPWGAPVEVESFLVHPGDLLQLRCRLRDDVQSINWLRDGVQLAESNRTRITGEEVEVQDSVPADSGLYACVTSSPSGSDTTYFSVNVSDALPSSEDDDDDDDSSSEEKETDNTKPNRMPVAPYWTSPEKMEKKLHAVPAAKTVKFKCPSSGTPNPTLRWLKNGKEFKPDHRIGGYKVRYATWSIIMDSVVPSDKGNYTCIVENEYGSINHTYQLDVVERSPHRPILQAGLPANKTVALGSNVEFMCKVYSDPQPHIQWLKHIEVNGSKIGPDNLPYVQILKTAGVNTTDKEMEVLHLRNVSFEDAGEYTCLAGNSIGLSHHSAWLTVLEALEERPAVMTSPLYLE

Chain of UniProt P21802 (P21802 22-377): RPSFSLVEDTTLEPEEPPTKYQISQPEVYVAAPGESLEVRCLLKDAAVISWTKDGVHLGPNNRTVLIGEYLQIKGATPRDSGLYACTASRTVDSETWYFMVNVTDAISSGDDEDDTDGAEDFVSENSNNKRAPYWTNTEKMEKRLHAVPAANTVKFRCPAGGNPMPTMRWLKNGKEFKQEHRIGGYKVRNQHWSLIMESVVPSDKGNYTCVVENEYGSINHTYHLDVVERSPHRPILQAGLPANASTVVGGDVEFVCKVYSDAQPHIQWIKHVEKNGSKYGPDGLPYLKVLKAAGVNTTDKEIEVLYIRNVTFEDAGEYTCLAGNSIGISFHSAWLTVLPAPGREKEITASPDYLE

- Kd [1]: 1 nM
- Kd [2]: 1 nM
Substance: FGF5 (from UniProt P12034)
